Biological target: other proteasome components
Assay: SEC

PSMA4-BirA*-FLAG (from UniProt P25789 2-261) (natural protein)
share of the BirA* signal that co-elutes with proteasome components: 60%

From paper doi:10.1101/2022.08.09.503299
